Laboratory results as given in the RNAGym collection of RNA variant scans (doi:10.1073/pnas.2313332121).
Fewer inactive variants are shown than the library holds.

B1: TPR 5TU (parent)
chain: GGAUCUUCUCGAUCUAACAAAAAAGACAAAUCUGCCACAAAGCUUGAGAGCAUCUUCGGAUGCAGAGGCGGCAGCCUUCGGUGGCGCGAUAGCGCCAACGUUCUCAACUAUGACACGCAAAACGCGUGCUCCGUUGAAUGGAGUUUAUCAUG

Variants of: B1
Assay: polymerase ribozyme fitness, log enrichment relative to wild type (log ratio); higher = more active; in vitro selection for triplet polymerase activity
Method in brief: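 Each subunit of a heterodimeric triplet polymerase ribozyme was represented by a PCR-built, transcribed mutant library that underwent triplicate single-round in vitro selection with frozen incubation at −7 °C. Extended constructs were recovered by gel excision, streptavidin-bead capture and RT-PCR, and Illumina sequencing of input and output libraries kept genotypes with ≥10 input reads and ≥1 read per output. Fitness is the logarithm of genotype enrichment relative to wild-type enrichment, from inverse-variance-weighted replicate averages, with a logarithm base of 2.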

Question: For GGAUCAUCGCGAUCUAACAAAAAAGACAAAUCUGGCACAAAGCUUGAGAGCAUCUUCGGGUGCAGAGGGGGCAGCCUUCGGUGGCGCCAUAGCGCAAACGUUCUCAACUAUGACACGCAAAACGCGUGCUCCGUUGAAUGGAGUUUAUCAUG, which “polymerase ribozyme fitness (log ratio)” value is on record?
Answer: The value was no more than -4.2.

Question: Which “polymerase ribozyme fitness (log ratio)” value does the source give for GGAUCUUCUCGAUCUAACAAAAAACACAAAUCUGCCACAAAGCUAGAGAGCAUCUUCGAAUGCAGAGGCGGCAGCCUUCGGUGGCGCGAGAGCGCCAACAUUCUCAACUAUGACAGGCAAAACGCGUGCUCCGUUGAAUGGAGUUUAUCAUG here?
Answer: The value was no more than -4.2.

Question: Which “polymerase ribozyme fitness (log ratio)” value does the source give for GGAUCUUCUCGAUCUAACUAAAAAGACAAAUCUGCCACAAAGCUUGAGAGCAUCGUCGGAUGCAGAGGCGGCAGCCUUCGGUGGGGCGAUAGCGCUAACGUUCUCAACUAUGACAAGCAAAACGCGUGCUCCGUUGAAAGGAGUUUAUCAUG here?
Answer: The value was no more than -4.2.

Question: Which “polymerase ribozyme fitness (log ratio)” value does the source give for GGAUCUUCUCGAUCUAACAAAAAAGACAAAUCUGCCACAAAGCUUGAGAGCAUCUUCGGAUGCAGAGGCGGCAGCCUUCGGUGGCGCGAUAGCUCCAACGGUCUCAACUAUGACACGCAUAACGCGUGCUCCGUUGAAUGGUGUUUAUCAUG here?
Answer: The value was -2.08.

Question: Which “polymerase ribozyme fitness (log ratio)” value does the source give for GGAUCUUCUCGAUCUAACAAAAAAGACAAAUCUGCCACAAAGCUUGAAAGCAUCUUCGGAUGCAGAGGCGGCAGCCUUCGGUGGUGCGAUAGCGCCUACGUUCUCAACUAUGACACGCAAAACGCGUGCCCCGUUGAAUGGAGUUUAUCUUG here?
Answer: The value was no more than -4.2.

Question: For GGAUCUUCUCGAUCUAACAAAAAAGACAAAUCUGCCGCAAAGCUUGAGAGCAUAUUCGGAUGCAGAGGCGGCAGCCUUCGGUGGCGCGAUAGCGCCAACGUUCUCAACUAUGACACGCAAAACGCGUGCUCCGUUGAAUGAAGUUUAUCAUG, which “polymerase ribozyme fitness (log ratio)” value is on record?
Answer: The value was -2.78.

Question: With GGAUCUUCUCGAUCUAACAAAAAAGACAAAUCUGCCACAUAGCUUGAGAGCAUCGUCGGAUGCAGAGGCGGCAGCCUUCGGUGGCGCGAUAGCGUCAACGUUCUGAACUAUGACAGGCAAAACGCGUGCUCCGUUGAAUGGAGUUUAUCAUG as the variant, how does the “polymerase ribozyme fitness (log ratio)” value read?
Answer: Its value is -3.94.

Question: For GGAUCUUCUCGAUCUAACAAAAAAGACAAAUCUGCCACAAAGCUUGAGAGAGUCUUCGGAUGCAGAGGCGGCAGCCUUCGGUGGCGCGAUAGCGCCAACGUUCUCAACUAUGACACGCAAAACGCGUGCUCCGUUGAAUGGAGUUUAUCAUG, which “polymerase ribozyme fitness (log ratio)” value is on record?
Answer: Its value is -0.455.

Question: Which “polymerase ribozyme fitness (log ratio)” value does the source give for GGAUCUUCUCGAUCUAACUAAAAAGCCAAUUCUGUCACAAUGCUUGAGAGCAUCUUCGGAUGCAGAGGCGGCAGCCUUCGGUGACGCGAUAGCGCCAACGUUCUCAACUAUGACACGCAAAACGCGUGCUCCGUAGAAUGGAGUUUAUCAUG here?
Answer: The value was no more than -4.2.

Question: With GGAUCUUCUCGAUCUAACAAAAAAGACAAAUCUGCCACAAAGCUUGAGAGCAUCUUCGCAUGCAGAGGCGGCAGCCUUUGGUGGCGCGAUAGCGCCAACGUUCUCAACUAUGACACGCAAAACGCGUGCUCCGUUGAAUGGAGUUUAUCAUG as the variant, how does the “polymerase ribozyme fitness (log ratio)” value read?
Answer: The value was -3.43.

Question: For GGAUCUUCUCGCUCCAACAAAAAAGACAAAUCUGCCACAUAGCUUGAGAGCAUCUUCGGAUGCAGAGGCGGCAGCCUUCGGUGGCGCGAUAGCGCCAAGGUUCUCAACUAUGACACGCAAAACGCGUGCUCCGUUGAAUGGAGUUUAUCAUG, which “polymerase ribozyme fitness (log ratio)” value is on record?
Answer: The value was -0.411.

Question: For GGAUCUUCUCGAUCUAACAAAAAUGACAAAUCUGCCACAAAGCUUGAGAGCAUCUUUGGAUGCAGAGGCGGCAGCCUUCGGUGGCGCGUUACCGCCAACGUUCUCAACUAUGACACGCAAAACGCGCGCUGCGUUGAAUGGAGUUUAUCAUG, which “polymerase ribozyme fitness (log ratio)” value is on record?
Answer: Its value is no more than -4.2.

Question: Which “polymerase ribozyme fitness (log ratio)” value does the source give for GGAUCUUCUCGAUCUAACAAAUAUGACAAAUCUGCCACAAAGCUUGAGAGCAUCUUCCGAUGCAGAGGCGGCAGCCUUCGGUGGCGCGUUAGCGCCAACGUUCUCAACUAUGACACGCAAAACGCGUGCUCCGUUGAAUGGACUUUAUCAUG here?
Answer: Its value is -2.7.

Question: Which “polymerase ribozyme fitness (log ratio)” value does the source give for GGAUCUUCUUGAUCUAACAAAAAAGACAAAUCUGCCACAAAGCUUGAGAGCAUCUUCUGAUGCAGAGGCGGCAGCCUUCGGUAGCGCGCUAGCGCCAACGUUCUCAACUGUGACACGCAAAACGCGUGCUCCGUUGAAUGGAGUUUAACAUG here?
Answer: The value was no more than -4.2.

Question: With GGAUCUUCUCGAUCUAACAAAAAAGACAAAUCUGCCACAAAGCUUGAGAGCAUCUUCGGAUGCAGAGGCGGCAGCCUUCGGUGGCGCGAUAGCGCCAACGUUCUCAACUAUGACACACAAAAAGCGUGCUCCGUUGAAUGGAGUUUAUCAUG as the variant, how does the “polymerase ribozyme fitness (log ratio)” value read?
Answer: The value was 0.34.

Question: With GGAUCUUCUCGAUCUAACAAAAAAGACAAAUCUGCCACAAAGCUUGAGAGCAUCUUCGGUUGCAGAGGCGGCAGCCUUCGUUGGUGCGAUAUGGCAAACGUUUUCAACUAUGACACGCAAAACGCGUACUCCGUUGAAUGGAGUUUAUCAUG as the variant, how does the “polymerase ribozyme fitness (log ratio)” value read?
Answer: The value was no more than -4.2.

Question: Which “polymerase ribozyme fitness (log ratio)” value does the source give for GGAUCUUCUCGAUCUAACAAAAAAGAUAAAUCUGCCACAAAGCUUGAGAGCAUCUUCGGAUGCAGAGGCGGCAGCCUUCGGUGGCACGAUAGCGCCAACGUUCUCAACUAUGACACGCAAAACGCGUGCUCCGUUGAAUGGAGUUUAUCAUG here?
Answer: Its value is -2.94.

Question: With GGAUCUUCUCGAUCUAACAAAAAGGACAAAUCUGCCACAAAGCUUGAGAGCAUCUUCGGAUGCAGAGGCGGCAGCCUUCGGUGGCGCGAUAGCGCCUACGUUCUCAACUAUGACACGCAAAACGCGUGCUCCGUUGAAUUGAGUUUAUCAUG as the variant, how does the “polymerase ribozyme fitness (log ratio)” value read?
Answer: The value was no more than -4.2.

Question: For GGAUCUUCUCGAUCUAACAAAAAAGACAAAUCUGCCACAAUGCUUGAGAGCAUGUUCGGAUGCACAGGCGGCAGCCUUCGGUGUCGCGAUAGCGCCAACGUUCUCAACUAUGACACGCAAAACGCGUGCUCCGUUGAAUGAAGUUUAUAAUG, which “polymerase ribozyme fitness (log ratio)” value is on record?
Answer: Its value is no more than -4.2.
